The values that follow come from the MegaScale stability set (Tsuboyama et al. 2023).

The chains are these.
B1: 6NMW (parent)
chain: QGDIVVALYPYDGIHPDDLSFKKGEKMKVLEEHGEWWKAKSLLTKKEGFIPSNYVAKLN

In the series the parent is B1. The series is described as follows: folding stability dG (cDNA display proteolysis); higher = more stable. The note with it: PBS, room temperature.
Turning to Q1C, the “folding stability dG” value came to 4.65 kcal/mol.
Under Q1N stands 3.69 kcal/mol.
Take Q1T: the “folding stability dG” value amounted to 4.18 kcal/mol.
Under Q1E stands 3.97 kcal/mol.
Q1A: the “folding stability dG” value worked out at 3.87 kcal/mol.
The same measure for Q1G: 3.67 kcal/mol; for Q1M: 3.74 kcal/mol; for Q1R: 3.79 kcal/mol.
The same measure for Q1H: 3.79 kcal/mol; for Q1S: 3.89 kcal/mol; for Q1Y: 4.04 kcal/mol.
Under Q1F stands 3.8 kcal/mol; under Q1K, 4.1 kcal/mol; under Q1P, 3.96 kcal/mol.
Q1L: the “folding stability dG” value was determined as 4.29 kcal/mol.
As for Q1W, the “folding stability dG” value was 4.06 kcal/mol.
The same measure for Q1D: 3.76 kcal/mol.
In the case of V6E, the “folding stability dG” value came out at 2.18 kcal/mol.
As to V6L, the “folding stability dG” value is 2.18 kcal/mol.
With V6F, the “folding stability dG” value is 2.89 kcal/mol.
Turning to V6K, the “folding stability dG” value is 1.52 kcal/mol.
Consider V6G, for which the “folding stability dG” value worked out at 0.392 kcal/mol.
Consider V6H, for which the “folding stability dG” value was 1.5 kcal/mol.
On to V6D, for which the “folding stability dG” value is -0.164 kcal/mol.
Turning to V6C, the “folding stability dG” value was determined as 3.01 kcal/mol.
With V6A, the “folding stability dG” value turned out to be 1.29 kcal/mol.
Regarding V6I, the “folding stability dG” value was determined as 4.06 kcal/mol.
Turning to G2E, the “folding stability dG” value worked out at 3.29 kcal/mol.
The same measure for G2H: 3.74 kcal/mol; for G2T: 3.29 kcal/mol.
Take G2S: the “folding stability dG” value came to 3.54 kcal/mol.
For G2L, the “folding stability dG” value came to 3.21 kcal/mol.
Turning to G2A, the “folding stability dG” value came to 3.27 kcal/mol.
Take G2C: the “folding stability dG” value worked out at 4.54 kcal/mol.
On to G2I, for which the “folding stability dG” value was found to be 3.12 kcal/mol.
Consider G2R, for which the “folding stability dG” value came out at 3 kcal/mol.
The same measure for G2Q: 3.21 kcal/mol; for G2P: 2.98 kcal/mol; for G2V: 3.15 kcal/mol.
Consider G2N, for which the “folding stability dG” value was found to be 3.5 kcal/mol.
Take G2D: the “folding stability dG” value is 3.46 kcal/mol.
In the case of G2W, the “folding stability dG” value is 3.93 kcal/mol.
On to G2F, for which the “folding stability dG” value was determined as 3.9 kcal/mol.
As to G2M, the “folding stability dG” value was determined as 3.38 kcal/mol.
Regarding G2K, the “folding stability dG” value was found to be 2.9 kcal/mol.
In the case of G2Y, the “folding stability dG” value was 3.95 kcal/mol.
In the case of I4L, the “folding stability dG” value was 3 kcal/mol.
I4T: the “folding stability dG” value was 2.35 kcal/mol.
For the variant I4R, the “folding stability dG” value was 0.874 kcal/mol.
Take I4H: the “folding stability dG” value was 1.74 kcal/mol.
Under I4C stands 2.58 kcal/mol; under I4V, 3.08 kcal/mol; under I4E, 1.53 kcal/mol.
As to I4N, the “folding stability dG” value worked out at 0.755 kcal/mol.
I4Y: the “folding stability dG” value amounted to 2.98 kcal/mol.
Turning to I4G, the “folding stability dG” value was 0.464 kcal/mol.
On to I4W, for which the “folding stability dG” value came out at 2.71 kcal/mol.
As for I4K, the “folding stability dG” value is 0.841 kcal/mol.
With I4Q, the “folding stability dG” value was 1.21 kcal/mol.
The same measure for I4F: 2.76 kcal/mol.
In the case of I4M, the “folding stability dG” value turned out to be 2.52 kcal/mol.
With I4D, the “folding stability dG” value is 1.12 kcal/mol.
I4P: the “folding stability dG” value is -0.054 kcal/mol.
On to I4S, for which the “folding stability dG” value turned out to be 0.94 kcal/mol.
For the variant I4A, the “folding stability dG” value was 0.908 kcal/mol.
As for V5T, the “folding stability dG” value was 0.383 kcal/mol.
For the variant V5L, the “folding stability dG” value came out at 1.66 kcal/mol.
Consider V5R, for which the “folding stability dG” value came to 0.357 kcal/mol.
V5Q: the “folding stability dG” value is -0.613 kcal/mol.
V5G: the “folding stability dG” value is -0.073 kcal/mol.
Under V5W stands 4.11 kcal/mol.
On to V5H, for which the “folding stability dG” value was found to be 1.41 kcal/mol.
Under V5E stands -0.712 kcal/mol; under V5K, -0.356 kcal/mol.
The same measure for V5S: 0.271 kcal/mol.
As for V5M, the “folding stability dG” value came out at 1.65 kcal/mol.
Regarding V5F, the “folding stability dG” value was 3.21 kcal/mol.
Under V5Y stands 4.22 kcal/mol; under V5A, 2.41 kcal/mol; under V5I, 2.37 kcal/mol.
In the case of V5C, the “folding stability dG” value was determined as 3.86 kcal/mol.
As to D3I, the “folding stability dG” value is 4.5 kcal/mol.
For D3P, the “folding stability dG” value is 3.09 kcal/mol.
Under D3T stands 4.52 kcal/mol; under D3S, 4.3 kcal/mol; under D3F, 4.91 kcal/mol.
The same measure for D3G: 3.47 kcal/mol; for D3M: 4.59 kcal/mol.
The same measure for D3K: 4.12 kcal/mol; for D3E: 3.77 kcal/mol.
D3Q: the “folding stability dG” value stood at 4.27 kcal/mol.
